Starred links: 1 amine or outer side, 2 acyl side, 3 side chain; linkers in the order of their positions; H or OH if unused. Non-standard residues stand in square brackets, D forms with d. Groups on a side chain read outwards from the residue. No end group written: not given here. *: point of attachment. C20 diacid = O=C(O)CCCCCCCCCCCCCCCCCCC(=O)*; C18 diacid = O=C(O)CCCCCCCCCCCCCCCCC(=O)*; γGlu = O=C(O)[C@H](CCC(=O)[*:2])N[*:1]; αMeF = C[C@](N)(Cc1ccccc1)C(=O)O; AEEA = NCCOCCOCC(=O)O; Aib = CC(C)(N)C(=O)O
B1: Peptide 142 (peptide)
peptide: H[Aib]QGTFTSDVSK[αMeF]LDSK([AEEA-AEEA-γGlu-C18 diacid])RARDFVAWLLE[Aib]G-OH
modifications: N-terminus assumed
SMILES: CC(C)C[C@H](NC(=O)[C@H](Cc1c[nH]c2ccccc12)NC(=O)[C@H](C)NC(=O)[C@@H](NC(=O)[C@H](Cc1ccccc1)NC(=O)[C@H](CC(=O)O)NC(=O)[C@H](CCCNC(=N)N)NC(=O)[C@H](C)NC(=O)[C@H](CCCNC(=N)N)NC(=O)[C@H](CCCCNC(=O)COCCOCCNC(=O)COCCOCCNC(=O)CC[C@H](NC(=O)CCCCCCCCCCCCCCCCC(=O)O)C(=O)O)NC(=O)[C@H](CO)NC(=O)[C@H](CC(=O)O)NC(=O)[C@H](CC(C)C)NC(=O)[C@](C)(Cc1ccccc1)NC(=O)[C@H](CCCCN)NC(=O)[C@H](CO)NC(=O)[C@@H](NC(=O)[C@H](CC(=O)O)NC(=O)[C@H](CO)NC(=O)[C@@H](NC(=O)[C@H](Cc1ccccc1)NC(=O)[C@@H](NC(=O)CNC(=O)[C@H](CCC(N)=O)NC(=O)C(C)(C)NC(=O)[C@@H](N)Cc1c[nH]cn1)[C@@H](C)O)[C@@H](C)O)C(C)C)C(C)C)C(=O)N[C@@H](CC(C)C)C(=O)N[C@@H](CCC(=O)O)C(=O)NC(C)(C)C(=O)NCC(=O)O
B2: Peptide 139 (peptide)
peptide: H[Aib]QGTFTSDVSK[αMeF]LDSK([γGlu-γGlu-AEEA-AEEA-γGlu-γGlu-C20 diacid])RAQDFVRWLLE[Aib]G-OH
B3: Peptide 143 (peptide)
peptide: H[Aib]QGTFTSDVSK[αMeF]LDSK([AEEA-AEEA-γGlu-C18 diacid])RARDFVQWLLE[Aib]G-OH
modifications: N-terminus assumed
SMILES: CC(C)C[C@H](NC(=O)[C@H](Cc1c[nH]c2ccccc12)NC(=O)[C@H](CCC(N)=O)NC(=O)[C@@H](NC(=O)[C@H](Cc1ccccc1)NC(=O)[C@H](CC(=O)O)NC(=O)[C@H](CCCNC(=N)N)NC(=O)[C@H](C)NC(=O)[C@H](CCCNC(=N)N)NC(=O)[C@H](CCCCNC(=O)COCCOCCNC(=O)COCCOCCNC(=O)CC[C@H](NC(=O)CCCCCCCCCCCCCCCCC(=O)O)C(=O)O)NC(=O)[C@H](CO)NC(=O)[C@H](CC(=O)O)NC(=O)[C@H](CC(C)C)NC(=O)[C@](C)(Cc1ccccc1)NC(=O)[C@H](CCCCN)NC(=O)[C@H](CO)NC(=O)[C@@H](NC(=O)[C@H](CC(=O)O)NC(=O)[C@H](CO)NC(=O)[C@@H](NC(=O)[C@H](Cc1ccccc1)NC(=O)[C@@H](NC(=O)CNC(=O)[C@H](CCC(N)=O)NC(=O)C(C)(C)NC(=O)[C@@H](N)Cc1c[nH]cn1)[C@@H](C)O)[C@@H](C)O)C(C)C)C(C)C)C(=O)N[C@@H](CC(C)C)C(=O)N[C@@H](CCC(=O)O)C(=O)NC(C)(C)C(=O)NCC(=O)O
B4: Peptide 141 (peptide)
peptide: H[Aib]QGTFTSDVSK[αMeF]LDSK([AEEA-AEEA-γGlu-C18 diacid])RAQDFVAWLLE[Aib]G-OH
modifications: N-terminus assumed
SMILES: CC(C)C[C@H](NC(=O)[C@H](Cc1c[nH]c2ccccc12)NC(=O)[C@H](C)NC(=O)[C@@H](NC(=O)[C@H](Cc1ccccc1)NC(=O)[C@H](CC(=O)O)NC(=O)[C@H](CCC(N)=O)NC(=O)[C@H](C)NC(=O)[C@H](CCCNC(=N)N)NC(=O)[C@H](CCCCNC(=O)COCCOCCNC(=O)COCCOCCNC(=O)CC[C@H](NC(=O)CCCCCCCCCCCCCCCCC(=O)O)C(=O)O)NC(=O)[C@H](CO)NC(=O)[C@H](CC(=O)O)NC(=O)[C@H](CC(C)C)NC(=O)[C@](C)(Cc1ccccc1)NC(=O)[C@H](CCCCN)NC(=O)[C@H](CO)NC(=O)[C@@H](NC(=O)[C@H](CC(=O)O)NC(=O)[C@H](CO)NC(=O)[C@@H](NC(=O)[C@H](Cc1ccccc1)NC(=O)[C@@H](NC(=O)CNC(=O)[C@H](CCC(N)=O)NC(=O)C(C)(C)NC(=O)[C@@H](N)Cc1c[nH]cn1)[C@@H](C)O)[C@@H](C)O)C(C)C)C(C)C)C(=O)N[C@@H](CC(C)C)C(=O)N[C@@H](CCC(=O)O)C(=O)NC(C)(C)C(=O)NCC(=O)O
B5: Peptide 138 (peptide)
peptide: H[Aib]QGTFTSDVSK[αMeF]LDSK([γGlu-γGlu-AEEA-AEEA-γGlu-γGlu-C18 diacid])RAQDFVRWLLE[Aib]G-OH
modifications: N-terminus assumed
SMILES: CC(C)C[C@H](NC(=O)[C@H](Cc1c[nH]c2ccccc12)NC(=O)[C@H](CCCNC(=N)N)NC(=O)[C@@H](NC(=O)[C@H](Cc1ccccc1)NC(=O)[C@H](CC(=O)O)NC(=O)[C@H](CCC(N)=O)NC(=O)[C@H](C)NC(=O)[C@H](CCCNC(=N)N)NC(=O)[C@H](CCCCNC(=O)CC[C@H](NC(=O)CC[C@H](NC(=O)COCCOCCNC(=O)COCCOCCNC(=O)CC[C@H](NC(=O)CC[C@H](NC(=O)CCCCCCCCCCCCCCCCC(=O)O)C(=O)O)C(=O)O)C(=O)O)C(=O)O)NC(=O)[C@H](CO)NC(=O)[C@H](CC(=O)O)NC(=O)[C@H](CC(C)C)NC(=O)[C@](C)(Cc1ccccc1)NC(=O)[C@H](CCCCN)NC(=O)[C@H](CO)NC(=O)[C@@H](NC(=O)[C@H](CC(=O)O)NC(=O)[C@H](CO)NC(=O)[C@@H](NC(=O)[C@H](Cc1ccccc1)NC(=O)[C@@H](NC(=O)CNC(=O)[C@H](CCC(N)=O)NC(=O)C(C)(C)NC(=O)[C@@H](N)Cc1c[nH]cn1)[C@@H](C)O)[C@@H](C)O)C(C)C)C(C)C)C(=O)N[C@@H](CC(C)C)C(=O)N[C@@H](CCC(=O)O)C(=O)NC(C)(C)C(=O)NCC(=O)O
B6: Peptide 144 (peptide)
peptide: H[Aib]QGTFTSDVSK[αMeF]LDSK([γGlu-γGlu-AEEA-AEEA-γGlu-γGlu-C18 diacid])RARDFVRWLLE[Aib]G-OH
modifications: N-terminus assumed
SMILES: CC(C)C[C@H](NC(=O)[C@H](Cc1c[nH]c2ccccc12)NC(=O)[C@H](CCCNC(=N)N)NC(=O)[C@@H](NC(=O)[C@H](Cc1ccccc1)NC(=O)[C@H](CC(=O)O)NC(=O)[C@H](CCCNC(=N)N)NC(=O)[C@H](C)NC(=O)[C@H](CCCNC(=N)N)NC(=O)[C@H](CCCCNC(=O)CC[C@H](NC(=O)CC[C@H](NC(=O)COCCOCCNC(=O)COCCOCCNC(=O)CC[C@H](NC(=O)CC[C@H](NC(=O)CCCCCCCCCCCCCCCCC(=O)O)C(=O)O)C(=O)O)C(=O)O)C(=O)O)NC(=O)[C@H](CO)NC(=O)[C@H](CC(=O)O)NC(=O)[C@H](CC(C)C)NC(=O)[C@](C)(Cc1ccccc1)NC(=O)[C@H](CCCCN)NC(=O)[C@H](CO)NC(=O)[C@@H](NC(=O)[C@H](CC(=O)O)NC(=O)[C@H](CO)NC(=O)[C@@H](NC(=O)[C@H](Cc1ccccc1)NC(=O)[C@@H](NC(=O)CNC(=O)[C@H](CCC(N)=O)NC(=O)C(C)(C)NC(=O)[C@@H](N)Cc1c[nH]cn1)[C@@H](C)O)[C@@H](C)O)C(C)C)C(C)C)C(=O)N[C@@H](CC(C)C)C(=O)N[C@@H](CCC(=O)O)C(=O)NC(C)(C)C(=O)NCC(=O)O

molecular target: human GLP-1 receptor (human, UniProt P43220); assay: cell-based or functional assay

Point of comparison: B4, “cAMP production, hGLP-1R EC50 (pM)” value 264 pM. Against it:
- B1 — lower, 59.4 pM
- B2 — higher, 630 pM
- B3 — lower, 19.1 pM
- B5 — lower, 104 pM
- B6 — lower, 45.2 pM

molecular target: human glucagon receptor (human, UniProt P47871); assay: cell-based or functional assay

Point of comparison: B4, “cAMP production, hGluc-R EC50 (pM)” value 392 pM. Against it:
- B1 — lower, 108 pM
- B2 — higher, 984 pM
- B3 — lower, 32.6 pM
- B5 — lower, 184 pM
- B6 — higher, 702 pM

From US12630600B2 (MEDIMMUNE LIMITED, priority 2022, dated 2026)
